In patent US20240117054A1 (DRAGONFLY THERAPEUTICS, published 2024):

T1: human FLT3 (hFLT3) expressed on cells (human, UniProt P36888 27-993)
T1 construct: whole, on cells; One molecule for all cell lines that carry human FLT3; also called RMA-hFLT3; FLT3 on REH cells
T1 sequence (looked up): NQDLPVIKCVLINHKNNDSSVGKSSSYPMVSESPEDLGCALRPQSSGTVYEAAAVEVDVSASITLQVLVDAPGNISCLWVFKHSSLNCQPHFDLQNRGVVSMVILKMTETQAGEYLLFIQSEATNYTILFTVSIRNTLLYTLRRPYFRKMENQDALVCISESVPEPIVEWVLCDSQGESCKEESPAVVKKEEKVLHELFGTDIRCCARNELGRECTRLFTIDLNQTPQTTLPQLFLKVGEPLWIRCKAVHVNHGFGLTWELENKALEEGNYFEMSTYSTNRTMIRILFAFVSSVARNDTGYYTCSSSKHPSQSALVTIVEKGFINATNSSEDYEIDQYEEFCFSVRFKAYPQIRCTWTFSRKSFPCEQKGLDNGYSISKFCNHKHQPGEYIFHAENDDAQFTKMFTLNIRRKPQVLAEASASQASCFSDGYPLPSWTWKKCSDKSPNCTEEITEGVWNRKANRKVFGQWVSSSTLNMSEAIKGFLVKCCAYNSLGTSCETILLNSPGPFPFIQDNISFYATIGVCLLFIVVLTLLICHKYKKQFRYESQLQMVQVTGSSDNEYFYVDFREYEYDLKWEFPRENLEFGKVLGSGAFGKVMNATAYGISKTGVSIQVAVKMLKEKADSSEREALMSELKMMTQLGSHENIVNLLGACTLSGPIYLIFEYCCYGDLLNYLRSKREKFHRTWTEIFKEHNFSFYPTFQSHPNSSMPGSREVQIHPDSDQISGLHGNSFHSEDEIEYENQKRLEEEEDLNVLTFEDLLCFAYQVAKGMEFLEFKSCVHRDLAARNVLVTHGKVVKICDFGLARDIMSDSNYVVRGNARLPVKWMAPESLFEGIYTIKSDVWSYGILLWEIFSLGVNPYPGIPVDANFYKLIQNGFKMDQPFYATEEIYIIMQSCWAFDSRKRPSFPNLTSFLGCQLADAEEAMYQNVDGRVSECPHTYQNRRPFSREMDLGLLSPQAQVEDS

T2: hFLT3-His fusion protein (human, UniProt P36888 27-541, limits assumed)
T2 construct: Soluble recombinant antigen used for immunisation, ELISA, SPR and BLI binning; also called recombinant hFLT3 protein; not shown: His tag
T2 sequence (looked up): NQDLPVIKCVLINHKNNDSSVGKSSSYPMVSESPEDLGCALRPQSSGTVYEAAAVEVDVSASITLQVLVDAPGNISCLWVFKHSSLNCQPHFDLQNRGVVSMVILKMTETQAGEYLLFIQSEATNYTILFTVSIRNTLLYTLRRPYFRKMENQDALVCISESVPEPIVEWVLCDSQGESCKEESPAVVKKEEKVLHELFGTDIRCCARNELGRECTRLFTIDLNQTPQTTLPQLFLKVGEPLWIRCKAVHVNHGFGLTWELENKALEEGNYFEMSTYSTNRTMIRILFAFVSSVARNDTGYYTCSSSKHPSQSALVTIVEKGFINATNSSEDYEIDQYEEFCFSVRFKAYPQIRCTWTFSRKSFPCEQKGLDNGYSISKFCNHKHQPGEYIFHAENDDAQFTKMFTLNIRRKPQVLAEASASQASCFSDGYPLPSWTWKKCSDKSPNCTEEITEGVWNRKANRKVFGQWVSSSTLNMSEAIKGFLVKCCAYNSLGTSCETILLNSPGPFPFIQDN

T3: cynomolgus monkey FLT3 (cFLT3) expressed on RMA cells (cynomolgus monkey, UniProt A0A2K5VQ48 27-993)
T3 construct: whole, on cells; also called RMA-cFLT3; cynomolgus FLT3
T3 sequence: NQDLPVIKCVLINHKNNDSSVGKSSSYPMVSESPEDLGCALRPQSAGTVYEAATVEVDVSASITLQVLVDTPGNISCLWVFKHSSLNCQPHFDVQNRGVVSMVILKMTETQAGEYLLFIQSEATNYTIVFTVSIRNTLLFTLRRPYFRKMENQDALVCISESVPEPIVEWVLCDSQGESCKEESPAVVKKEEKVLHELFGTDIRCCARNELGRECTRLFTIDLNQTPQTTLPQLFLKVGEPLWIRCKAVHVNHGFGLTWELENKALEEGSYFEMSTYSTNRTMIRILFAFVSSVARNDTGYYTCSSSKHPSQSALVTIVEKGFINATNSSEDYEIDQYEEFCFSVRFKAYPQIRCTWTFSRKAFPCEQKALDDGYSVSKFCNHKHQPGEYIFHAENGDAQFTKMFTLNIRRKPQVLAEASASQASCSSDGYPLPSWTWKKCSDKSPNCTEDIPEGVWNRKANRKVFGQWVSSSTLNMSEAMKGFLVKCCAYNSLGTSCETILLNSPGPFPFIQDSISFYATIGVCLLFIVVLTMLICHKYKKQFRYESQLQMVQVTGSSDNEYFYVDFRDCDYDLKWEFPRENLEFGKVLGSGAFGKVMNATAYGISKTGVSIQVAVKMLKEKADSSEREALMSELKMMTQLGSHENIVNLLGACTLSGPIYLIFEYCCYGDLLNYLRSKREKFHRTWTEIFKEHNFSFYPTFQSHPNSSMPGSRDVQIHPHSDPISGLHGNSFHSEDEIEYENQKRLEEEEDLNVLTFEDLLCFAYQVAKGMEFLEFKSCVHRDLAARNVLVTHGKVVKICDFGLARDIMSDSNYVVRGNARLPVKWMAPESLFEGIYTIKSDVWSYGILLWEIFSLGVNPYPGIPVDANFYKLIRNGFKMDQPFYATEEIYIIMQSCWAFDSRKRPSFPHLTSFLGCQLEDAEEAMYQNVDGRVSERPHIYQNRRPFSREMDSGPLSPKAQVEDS


Legend:
[1] = target: T1, human FLT3 (hFLT3) expressed on cells; assay: flow cytometry, purified mAb on SEM cells
[2] = target: T2, hFLT3-His fusion protein; assay: SPR, purified murine subclone mAb, hFLT3-His
[3] = target: T3, cynomolgus monkey FLT3 (cFLT3) …; assay: flow cytometry, purified mAb on RMA-cFLT3 cells
[4] = target: T1, human FLT3 (hFLT3) expressed on cells; assay: flow cytometry, purified mAb on RMA-hFLT3 cells
[5] = target: T1, human FLT3 (hFLT3) expressed on cells; assay: cell-based or functional assay

Binder	EC50 [1] [nM]	Max MFI [1] [MFI]	Kd [2] [nM]	koff [2] [s⁻¹]	kon [2] [M⁻¹ s⁻¹]	EC50 [3] [nM]	Max MFI [3] [MFI]	EC50 [4] [nM]	Max MFI [4] [MFI]	binding result [3]	pFLT3 levels (pFLT3 ELISA, EOL-1 cells) [5] [fold]
15A11.C8 (antibody, V domains shown, Purified murine mAb from a hybridoma subclone) VH: EVQLQESGGGLVKTGGSRKLSCAASGFTFSDYGMHWVRHTPEKGLEWVVYISSGGNTIFYTDTVKGRFTISRDNAKNTLFLQMTSLRSEDTAVYFCVRQGYYYAMDYWGQGASVTVSS VL: DIQMTQTTSSLSASLGDRVTIRCRASQDITNYLNWYQQKPDGAVKLLISYTSILQSGVPSRFSGSGSGTDYSLTISNLEQGDVATYFCQQGSSLPWTFGGGTKLEIK	~1.13	3860	10.5	0.00048	45000	0.82	6510	0.41	1410		
12C9.E5 (antibody, V domains shown, Purified murine mAb from a hybridoma subclone) VH: EVQLQESGAELVRPGASVKLSCKASGYIFTDYEIHWVKQTPVHGLEWIGAIDPETGITAYSQKFKGKATLTTDTSSSTAYMEFRSLTSEDSAVYYCTRGGLLYWGQGTSVTVSS VL: DVVMTQTPLSLSVTIGQPASISCKSSQSLLYSDGETYLNWLQQRPGQSPKRLMYQVSKLDPGIPDRFSGSGSETDFTLKISRVEAEDLGIYYCLQGTFYPHTFGGGTKLEIK			18.7	0.00063	34000					no binding	
1A2.A3 (antibody, V domains shown, Purified murine mAb from a hybridoma subclone) VH: EVQLQESGPELVKPGASVKISCKASGYSFTGYYIHWVKQSPEESLEWIGEIYPNTGITTYNQKFTAKATLTVDKSSNTAYMQLKSLTSEDSAVYYCTRWGDYYGRDYWGQGTSVTVSS VL: DIVLTQSPASLAVSLGQRATISCRASETVDTHGNSFMHWYQQKPGQPPKLLIYRASNLESGIPARFSGSGSRTDFTLTINPVEADDVATYYCQQSNEDPRTFGGGTKLEIK	5.47	1360	8.5	0.00089	110000	1.82	2830	0.8	499		
14A5.E8 (antibody, V domains shown, Purified murine mAb from a hybridoma subclone) VH: EVQLQESGAELVQPGASVRLSCKASGYTFTSYWINWVKQRPGQGLEWIGNIYPGSSIINYNENFKNRATLTVDTSSSTAYMQLSSLTSDDSAVYYCARRVVYLYFDYWGQGTTLTVSS VL: QIVLTQSPAIMSASPGEKVTMTCSASSSVSYMHWYQQKSGTSPKRWIYDTSKLASGVPARFSGSGSGTSYSLTISSMEAEDAATYYCQQWTSKSPTFGGGTKLEIK	~1.07	1960	15.1	0.0019	130000	1.25	1780	~2.07	415		
4H2.E3 (antibody, V domains shown, Purified murine mAb from a hybridoma subclone) VH: EVQLQESGPELVKPGASVKMSCKASGYTFTSYLMHWMKQKPGQGLEWIGYINPYSDGIKYNEKFRDKATLTSDKSSNTAYMELSSLTSEDSAVYYCAHSSGYVGYAMDYWGQGTSVTVSS VL: GIVMTQTTPSVPVTPGESVSISCRSSKSLLHSNGNTYLYWFLQRPGQSPQLLIYRMSNLASGVPDRFSGSGSGTTFTLRISRVEAEDVGVYYCMQHLEYPFTFGSGTKLEIK	7.57	1510	17.6	0.001	57000	1.56	3450	0.66	696		
FLT3-ligand (ligand, human, UniProt P49771 27-185, looked up) TQDCSFQHSPISSDFAVKIRELSDYLLQDYPVTVASNLQDEELCGGLWRLVLAQRWMERLKTVAGSKMQGLLERVNTEIHFVTKCAFQPPPSCLRFVQTNISRLLQETSEQLVALKPWITRQNFSRCLELQCQPDSSTLPPPWSPRPLEATAPTAPQPP											3

Results, then the binder that gave them:

EC50 [1] [nM]	Max MFI [1] [MFI]	Kd [2] [nM]	koff [2] [s⁻¹]	kon [2] [M⁻¹ s⁻¹]	EC50 [3] [nM]	Max MFI [3] [MFI]	EC50 [4] [nM]	Max MFI [4] [MFI]	binding result [3]	pFLT3 levels (pFLT3 ELISA, EOL-1 cells) [5] [fold]	Binder
2.43	1140	1.7	0.00025	150000	1.23	2590	0.53	493			11F4.B9 (antibody, V domains shown, Purified murine mAb from a hybridoma subclone) VH: EVQLQESGPELVKPGASVKISCKASGYSFTGYYIHWVKQGPEKSLEWIGEIIPSTGSTIYNQKFKAKATLTVDKSSSTAYLQLKSLTSEDSAVYYCERWGDYYGRDYWGQGTSVTVSS VL: DIVLTQSPASLAVSLGQRATISCRASESVDIYGNSFMHWYQQKPGQPPKLLIYRASNLESGIPARFSGSGSRTDFTLTINPVEADDVATYYCQQSNEDPRTFGGGTKLEIK
3.2	2830	5.4	0.00055	100000	0.94	5260	0.36	1140			12H10.G7 (antibody, V domains shown, Purified murine mAb from a hybridoma subclone) VH: EVQLQESGPELVKPGASVKMSCKASGYTFTRYVMHWVKQRPGQGLEWIGFINPYNDDTKYNEKFKGKATLTSDKSSSTAYMELSSLTSEDSAVYHCARWRQLGSLDSWGQGTTLTVSS VL: NIVLTQSPASLAVSLGQRATISCRASESVDTYGSSFVHWYQQKPGQPPKLLIYLASNLESGVPARFSGSGSRSDFTLTIDPVEADDAATYYCQQNNEEPWTFGGGTKLEIK
3.29	2350	7.3	0.00082	110000	1.07	5570	0.72	1020			4A4.A3 (antibody, V domains shown, Purified murine mAb from a hybridoma subclone) VH: QVTLKESGPGILQPSQTLSLTCSFSGFSLTTYGMGVGWIRQPSGKGLEWLANIWFNDNKYYNSTLKSRLTISKDTSNNQVFLKISSVDTTDTATYYCAQITTVVGTFDYWGQGSPLTVSP VL: RIVMTQSPTTMAASPGEKITITCSASSSISSIYLHWYQQKPGFSPKLLIFRTSDLASGVPPRFGGSGSGTSYSLTIGTMEAEDVATYYCQQGSSFPRTFGGGTKLEIK
